Reference: PMC8505757 (Journal of Molecular Biology, 2021)
Non-standard residues stand in square brackets, D forms with d. pS = N[C@@H](COP(=O)(O)O)C(=O)O

Target: T1, 14-3-3σΔC (human, UniProt P31947 1-231)
T1 sequence (looked up): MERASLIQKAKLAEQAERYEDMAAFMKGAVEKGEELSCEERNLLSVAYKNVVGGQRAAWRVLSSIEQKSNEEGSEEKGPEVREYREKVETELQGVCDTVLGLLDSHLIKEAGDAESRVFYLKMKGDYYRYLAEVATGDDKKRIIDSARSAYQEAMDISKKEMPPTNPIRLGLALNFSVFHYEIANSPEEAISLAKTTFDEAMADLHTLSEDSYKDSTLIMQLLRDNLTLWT
Assay: crystal structure

B1: Ataxin-1 pS776 peptide (AcNH-RKRRWpSAPESR-NH2) (peptide)
peptide: Ac-RKRRW[pS]APESR-NH2
SMILES: CC(=O)N[C@@H](CCCNC(=N)N)C(=O)N[C@@H](CCCCN)C(=O)N[C@@H](CCCNC(=N)N)C(=O)N[C@@H](CCCNC(=N)N)C(=O)N[C@@H](Cc1c[nH]c2ccccc12)C(=O)N[C@@H](COP(=O)(O)O)C(=O)N[C@@H](C)C(=O)N1CCC[C@H]1C(=O)N[C@@H](CCC(=O)O)C(=O)N[C@@H](CO)C(=O)N[C@@H](CCCNC(=N)N)C(N)=O
B1: binds.
